The text below walks through data of patent publication US7888116B2, “Uses of notch receptors, notch ligands, and notch modulators in methods related to metabolic diseases” (The United States of America as represented by the …, priority 2005, dated 2011).

The experiment has as its system Notch-1 (NICD). The experiment can be described thus: NICD nuclear translocation in RIN cells (indirect immunofluorescence, immunoblot of nuclear extracts). The experiment is classed as cell-based, rat. To be noted: RIN cells treated with secretagogues. Here is the method:
Islet isolation, cell culture and treatments. Adult rat (Sprague-Dawley) and mouse (C57/BL6) islets were isolated by collagenase P digestion and cultured overnight in M199 medium (5 mM glucose). RIN 1046-38 β-cells were cultured as outlined previously (Wang, et al., Endocrinology, 142:1820-1827 (2001)). Isolated human islets came from David Harlan, Transplant Section, NIDDK. Ex-4, GLP-1, CCK (all used at concentrations previously shown to cause maximum insulin release), Ex and the γ-secretase inhibitor, L-685,458, were obtained from Bachem. H89 was from Calbiochem, insulin was from Sigma. The Jagged peptides, R-JAG […] (SEQ ID NO:1), JAG-1 […] (SEQ ID NO:2), and scrambled control peptide without agonist activity, sc-Jagged […] (Nickoloff, et al., Cell Death Differ, 9842-855 (2002)) (SEQ ID NO:3), were synthesised by New England Peptide Inc. […]
RIN cells were permeabilized in Triton-X (0.1%) on ice and blocked for 1 h at room temperature in 3% BSA and 0.1% Tween in PBS. They were incubated overnight at 4° C. with the primary antibody, washed in PBS and incubated with fluorescent labelled secondary antibody for 1 h, washed and mounted with fluorescence mounting medium (Vector Laboratories). […] AlexaFluor antibodies (Molecular Probes; Eugene, Oreg.) were excited with the 488-nm line of a krypton-argon laser and recorded at the presence of emission filter BP515-565 nm. […]
For orientation: A western blot detects proteins with antibodies after separation by electrophoresis.

B1: Cholecystokinin (peptide, UniProt P06307 21-115, looked up)
Cholecystokinin: QPVPPADPAGSGLQRAEEAPRRQLRVSQRTDGESRAHLGALLARYIQQARKAPSGRMSIVKNLQNLDPSHRISDRDYMGWMDFGRRSAEEYEYPS
modifications: Cholecystokinin
notes: increases insulin secretion in a non-cAMP dependent manner
On to B1, for which the “nuclear NICD / NICD translocation” value is listed as “did not increase NICD translocation above that seen with glucose alone”.
